# The supplement of paper PMC7877785
# ± gives the uncertainty stated by the source.
# Assay: self-splicing fitness, log relative to wild type (ln ratio); higher = more splicing; Tetrahymena group I intron in knt gene, E. coli kanamycin selection, DiMSum; sequences stand for … in CUCUCU…GGAGGGAAAAGUUAUCAGGCAUGCACCUGGUAGCUAGUCUUUAAACCAAUAGAUUGCAUCGGUUUAAAAGGCAAGACCGUCAAAUUGCGGGAAAGGGGUCAACAGCCGUUCAGUACCAAGUCUCAGGGGAAACUUUGAGAUGGCCUUGCAAAGGGUAUGGUAAUAAGCUGACGGACAUGGUCCUAACCACGCAGCCAAGUCCUAAGUCAACAGAUCUUCUGUUGAUAUGGAUGCAGUUCACAGACUAAAUGUCGGUCGGGGAAGAUGUAUUCUUCUCAUAAGAUAUAGUCGGACCUCUCCUUAAUGGGAGCUAGCGGAUGAAGUGAUGCAACACUGGAGCCGCUGGGAACUAAUUUGUAUGCGAAAGUAUAUUGAUUAGUUUUGGAGUACUCGUGGUCG
# Method in brief: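 Pooled colonies went to amplicon sequencing on an Illumina HiSeq 2500 after six replicate transformations. The plates were LB agar with 100 μg/mL carbenicillin, 50 μM IPTG and 0.2% rhamnose, with or without 25 μg/mL kanamycin, incubated overnight at 37°C or 30°C. The E. coli BL21(DE3) library had all eight P1ex-region intron nucleotides randomised, the intron placed in the knt kanamycin-resistance gene on pET-22b(+). DiMSum fitness is the error-weighted combination of replicate fold changes, kanamycin against none, normalised to wild type.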
Sequence,self-splicing fitness (ln) (30 °C),self-splicing fitness (ln) (37 °C)
CCGCAGCAAUAUUACGGGCA,-2.72 ± 0.17,-2.43 ± 0.18
CGGCAGCAAUAUUACGGGGC,-2.42 ± 0.18,-2.69 ± 0.33
AUUGAGCAAUAUUACGCUGC,-3.62 ± 0.47,-1.77 ± 0.41
AAGAAGCAAUAUUACGCGGA,-2.71 ± 0.16,-0.37 ± 0.12
CACUAGCAAUAUUACGAUCC,-2.56 ± 0.33,-1.91 ± 0.34
CACAAGCAAUAUUACGCAGA,-2.72 ± 0.2,-1.43 ± 0.16
UCAGAGCAAUAUUACGCUAG,-2.4 ± 0.12,-2.95 ± 0.28
UUCUAGCAAUAUUACGCCAA,-1.75 ± 0.21,-0.272 ± 0.2
CACGAGCAAUAUUACGUCCU,-3.93 ± 0.3,-2.81 ± 0.29
CGACAGCAAUAUUACGGCGC,-3.37 ± 0.24,-0.977 ± 0.15
GUACAGCAAUAUUACGAGCC,-1.6 ± 0.36,-2.01 ± 0.46
GGCCAGCAAUAUUACGCGGA,-1.17 ± 0.12,-0.716 ± 0.1
UCAUAGCAAUAUUACGUGAA,-2.56 ± 0.091,-1.61 ± 0.1
GAUAAGCAAUAUUACGGUUG,-2.65 ± 0.12,-1.26 ± 0.11
UAUGAGCAAUAUUACGAAAC,-2.34 ± 0.21,
UGCAAGCAAUAUUACGUAGA,-1.35 ± 0.072,-0.944 ± 0.1
CGGAAGCAAUAUUACGACUA,-0.269 ± 0.1,0.239 ± 0.1
UGUUAGCAAUAUUACGGCUU,-0.797 ± 0.16,-0.574 ± 0.19
UGGUAGCAAUAUUACGUAGU,-3.23 ± 0.22,-1.04 ± 0.18
AUGAAGCAAUAUUACGUAUC,-4.1 ± 0.24,-1.99 ± 0.18

Sequence,self-splicing fitness (ln) (30 °C),self-splicing fitness (ln) (37 °C)
ACGUAGCAAUAUUACGGGAU,-2.67 ± 0.16,-1.97 ± 0.16
GCAUAGCAAUAUUACGCUUU,-3.17 ± 0.2,-2.88 ± 0.18
AGAAAGCAAUAUUACGACUG,-1.04 ± 0.093,-0.249 ± 0.12
GUUUAGCAAUAUUACGCGAA,-3.53 ± 0.49,-2.01 ± 0.22
UAAAAGCAAUAUUACGCUUC,,-3.19 ± 0.25
UUCGAGCAAUAUUACGGAGU,,-2.26 ± 0.32
AACUAGCAAUAUUACGCUUG,-2.18 ± 0.11,-1.16 ± 0.12
CAUGAGCAAUAUUACGCAAU,-3.1 ± 0.38,
GAACAGCAAUAUUACGAAGA,-1.13 ± 0.18,-0.694 ± 0.16
CGCCAGCAAUAUUACGUUUU,-3.8 ± 0.15,-2.76 ± 0.16
UAAUAGCAAUAUUACGAAUG,-1.37 ± 0.11,-0.382 ± 0.11
UUGAAGCAAUAUUACGGCUA,-0.00358 ± 0.093,-0.295 ± 0.096
AACAAGCAAUAUUACGGCAG,-1.53 ± 0.11,-1.4 ± 0.13
GGCGAGCAAUAUUACGCGCG,,-0.647 ± 0.18
GCGAAGCAAUAUUACGCGUU,-2.54 ± 0.15,-2.77 ± 0.27
ACUGAGCAAUAUUACGGGUA,-3.08 ± 0.24,-1.67 ± 0.14
AAGAAGCAAUAUUACGGACU,0.093 ± 0.073,-0.443 ± 0.083
UGUAAGCAAUAUUACGAAAA,-1.7 ± 0.15,-1.15 ± 0.16
UAUCAGCAAUAUUACGAAGG,-1.58 ± 0.1,-1.34 ± 0.13
